Assay: label from the status in PepcDB records
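Also: failed if final PepcDB status was selected cloned or expressed and not failed if soluble or beyond.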

| Sequence | protein production |
| --- | --- |
| MWLSEFEIVLRDRVIPNGAVRIEDGRIAEIRDRPVAHADIDGGGRLLLPGFIDMHGDMVEREVEPRIGVHVPMRIGIAELDKKLASCGITTAYAALSFIGASVTSGVLRSEDHTTEIIDTIAGMKDHLLVDHRTHARFEVTFTPAIPTLQKLMDAGRLDLISLMDHTPGQGQYRDVELYIARIAKERGMSVAAASEVVGKRMAGREGQGNVLNALQDLSARARAAGIVLASHDDDTLEKVELVHGLGAALSEFPVTLEAAQEARRLGMHTAMGAPNALRGESYSGNLSARQAYQAGLLDMLASDYHPASILPAVLGLAELRGDGLAAAAALTSANPANALGLTDRGAVEPGLLADFVVADRYPVPRVRATFRAGRMIYGDGTLALAGKAERLGPVAAERLPAA | failed |
| MLSNILPLSIGAIFGTTARWLLNLAVPASLSPATGNLFANWTGALLIGIFAETVSHPQWKLLLITGFFGSLTTLSGFSLETVTLLQSNRPASALANIFLHTAGSLLLTWLGLKIGTAVK | failed |
| MIKEFSDPLYGFVRVGEAGLRLIDSFPFQRLRYVKQLGLAYLVFPSAQHTRFEHSLGVYHITERICESLKVKEKELVKLAGLLHDLGHPPFSHTTEVLLPRERSHEDFTERVIKETEIYEILKQDYSHEDIERLVRITLGKPEDEEEKLLSEIITGEFGSDRMDYLRRDAYFCGVSYGFFDYDRLISTLRVYENKVVVDESGLRALENFLISRYFMYVQVYFHKVVRILSIHLVEFLKKLISQEDFTDINNFLRLNDAFVISELFKRKAFREDFERIFQRKHFKTLLSTENYEKFSETKERLLEKFPQEKVRFDEVEKEVYGGNIYVLSSEGLKKAHELSPLIASLKPIKLYRIYVDRQLWEKARSELKLS | not failed |
| MTKTAKVNDIVRDWVVLDAKDKVFGRLITEIAVLLRGKHRPFYTPNVDCGDFVVVINANKVKFSGMKLEDKEYFTHSGYFGSTKSKTLQEMLEKAPEKLYHLAVRGMLPKTKLGKAMIKKLKVYRDDKHPHTAQTSKKDAK | failed |
| MLCACSGEQFRFEDQPGSPESLATRDFSASGLSSRNGGGDWDSKLEDIQVDEAESTLKEALSLNYEEARALLGRLEYQRGNFDAALQVFKGIDIKVLTPRIIKAIVEKTLPCKPRSKAVIVPPTTMSMHSVSLLLEAILLKARSLEELGSYKEAAEECKIILDVVENALPSGMPDGISGFAKLQDIFQKALELLPLLWKKAGNHHETIASYRRALSRPWNLDPQRLAVTQKSLALVLLYGSVEACPKDNIEEAIVLLMLLVKKMVVGDIQWDPELMDHLTYALSMTGQFEVLANYLEQTLPGVYTRGERWYLLSLCYSAAGIDKAAINLLKMALGPSESRQIPHIPLLLFGAKLCSKDPKHSRDGINFAHRLLDLGNSQSEHLLSQAHKFLGVCYGNAARSSKLDSERVFLQKKSLFSLNEAAKRGKADPELDVIFNLSVENAVQRNVQAALDGAVEYSSMVGGVSTKGWKHLAIVLSAEKRLKDAESILDFTMEEAGDIEKIELLRLKAVLQMAQEQPKKAMKTCSSLLGLIRAQEKSEQSESLLQKFETEAWQDLASVYGKLGSWSDAETCLEKARSMCYYSPRGWNETGLCLEAKSLHEEALISFFLSLSIEPDHVPSIVSIAEVMMKSGDESLPTAKSFLMNALRLDPRNHDAWMKLGHVAKKQGLSQQAAEFYQAAYELELSAPVQSFI | failed |
| MKRIKLVRHGESAANAGQASRNHESIPLTHRGLEQAITVARSFTKAPELIVASPFSRAQATAQETSAIFPTVAIETWPIQEFTYLAPARCVDTTVAQRRDWVDAYWARAEPAFCDGEGAESFLDFVYRAQAFLKQLAGHSAANTVVFSHGQFLNAVAWLLERRPQSLDRHAMADWRRYEIENHIPNGCGFYLSQSSTGAEWVLGHRNY | failed |
| MTAEILVFSLIIPLVVAFILPALKPKAATWLSAISFLIPMFVTLGFLLTTKETIEVPIMSLPAPVGEFYLLADPISNAFGFTICLVSAMVAFYSLPYMKHRFEEMLHDGEIRSIEWEFRKYWFLYNLYAVAMLWLVYAGNFILLYIFLEISLLASFLLIYMYGYGNRQWVAVLYFVWTHIAGVLALLGILIIGFENSTMAFNAVKAVGFTAWLLIFLGMLVKLPGLGPHIWLPWAHAEAPTPVSALLSPLTVGLAGYVLLRVYMIDSSFIDQYRDIIIAYAIVSSIYAGFSVFKQKDYKRLLAYSTVSQMGYVLIALCLGSYGLLGVVIQYISHAFGKSILFMTAGAIIASFHGLRDINRMSGMHEYVPTIANAALLGFMTLSGILTIGMFGEFYILAGLTTIYGFNLAVILAVVVVFIISGLYSFYTMKVIYYGTPAGYEKPKVSRLLDVPLYVVAFFSVAFIFPPLSTALLSGLKVVLGIGGVMP | failed |

— a protein production outcome set (Wang et al. 2014)
